According to article doi:10.1101/2022.01.11.475809, “HP1β Chromo Shadow Domain facilitates H2A ubiquitination for BRCA1 recruitment at DNA double-strand breaks” (bioRxiv, 2022):

Target: T1, FL-RING1A (1–406aa), recombinant (human, UniProt Q06587 1-406)
T1 construct: Human RING1A, full length, residues 1-406; Subcloned into the bacterial expression 1GFP vector (Addgene #29663, the vector's id); purification as in Hambarde et al., 2021 with other buffers; also called RING1A-FL; Human FL-RING1A; source: bacterial expression vector, purified (HisTrap, TEV cleavage, Superdex 75)
T1 sequence (looked up): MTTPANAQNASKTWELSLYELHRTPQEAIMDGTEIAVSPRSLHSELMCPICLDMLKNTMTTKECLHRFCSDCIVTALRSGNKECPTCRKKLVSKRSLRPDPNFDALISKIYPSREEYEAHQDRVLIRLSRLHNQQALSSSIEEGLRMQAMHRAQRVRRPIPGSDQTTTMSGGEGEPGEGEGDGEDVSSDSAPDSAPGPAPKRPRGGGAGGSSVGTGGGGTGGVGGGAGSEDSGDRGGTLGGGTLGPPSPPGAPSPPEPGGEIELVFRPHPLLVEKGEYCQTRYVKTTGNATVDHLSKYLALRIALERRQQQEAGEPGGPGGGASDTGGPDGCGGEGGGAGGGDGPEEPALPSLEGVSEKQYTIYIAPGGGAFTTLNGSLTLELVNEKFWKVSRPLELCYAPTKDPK
Experiment: pull-down; FL-RING1A incubated with His6-CSD HP1β at molar ratio 1:2 in buffer H (20 mM Tris pH 8, 70 mM NaCl, 5% glycerol, 5 mM BME, 100 µM ZnCl2) on ice for 20 min; Ni-NTA resin, elution with 300 mM imidazole; SDS-PAGE and western blot
Conditions: both partners purified

B1: His6-CSD HP1β (80–185aa), recombinant (domain or fragment)
chain: not shown
notes: HP1β residues 80-185 (hinge part and chromo shadow domain); 'Human' is printed before the two constructs of the sentence; Subcloned into the bacterial expression 1B vector (Addgene #29653, the vector's id); source: bacterial expression vector, purified (HisTrap, Superdex 75)
  binding result: binds
